According to US5705609A, “Decorin fragments inhibiting cell regulatory factors” (La Jolla Cancer Research Foundation, priority 1995, dated 1998):
Where a chain is given by its changes, count along the chain named. “Also recorded” adds a separate entry of the source. Blank lines part the entries; values can stand above or below the molecule they belong to.

Legend:
[1] = target: T1, TGF-β (Homo sapiens, UniProt P01137); assay: Binding of 125I-TGF-β to L-M(tk-) cells; settings: various concentrations of peptide (FIG. 12)
Procedure: About 2.5×10^4 HepG2 cells or L-M(tk-) cells were incubated with 250 pM[^125 I]TGF-β in the presence of recombinant human decorin (DC-12), PT-71 (MBP), decorin fragments (PT-72, -73, -84, -85, -86 and -87) or anti-TGF-β antibodies for 2 hours at room temperature. Cells were washed with washing buffer (128 mM NaCl, 5 mM KCl, 5 mM […], 1.2 mM CaCl2, 50 mM HEPES, pH 7.5) four times before determination of bound CPM.
The activity of the peptides was evaluated using the L-M(tk-) TGFβ1 binding inhibition assay described in Example VII, except various concentrations of peptide were incubated with the cells and TGFβ1 instead of decorin and recombinant decorin fragments. The negative control was a synthetic peptide corresponding to the first 15 amino acids of decorin, which has the sequence […](SEQ ID NO. 21).

[2] = target: T2, TGFβ-1 (Homo sapiens, UniProt P01137); assay: Microtiter binding assay: [125I]-TGFβ-1 binding to decorin-coated wells and competition; set-up: contains a major band at 25 kd; This band represents the native TGFβ-1 dimer; purchased Calbiochem, La Jolla, Calif; settings: for inhibition of [125I]-TGFβ-1 binding to decorin-coated wells: intact proteoglycans, 37° C. 4 hours (FIG. 3A); for inhibition of [125I]-TGFβ-1 binding to decorin-coated wells by core proteins: core proteins / chondroitinase ABC-treated, 4° C. overnight (FIG. 3B); for binding of [125I]-TGFβ-1 to microtiter wells coated with the protein: protein coated on wells
Procedure: The binding of TGFβ-1 to decorin was also examined in a microtiter binding assay. To perform the assay, the wells of a 96-well microtiter plate were coated overnight with 2μg/ml of recombinant decorin in 0.1M sodium carbonate buffer, pH 9.5. The wells were washed with PBS containing 0.05% Tween (PBS/Tween) and samples containing 5×10^4 cpm of [^125 I]-TGFβ-1 and various concentrations of competitors in PBS/Tween were added to each well. The plates were then incubated at 37° C. for 4 hours (at 4° C. overnight in experiments with chondroitinase ABC-digested proteoglycans), washed with PBS/Tween and the bound radioactivity was solubilized with 1% SDS in 0.2M NaOH. Total binding without competitors was about 4% under the conditions used. Nonspecific binding, determined by adding 100-fold molar excess of unlabeled TGFβ-1 over the labeled TGFβ-1 to the incubation mixture, was about 13% of total binding. This assay was also used to study the ability of other decorin preparations and related proteins to compete with the interaction.
Decorin isolated from bovine skin and biglycan isolated from bovine articular cartilage (PGI and PGII, obtained from Dr. Lawrence Rosenberg, Monteflore Medical Center, N.Y.; and described in Rosenberg et al., J. Biol. Chem. 250:6304-6313, (1985), incorporated by reference herein), chicken cartilage proteoglycan (provided by Dr. Paul Goetinck, La Jolla Cancer Research Foundation, La Jolla, Calif., and described in Goetinck, P. F., in THE GLYCOCONJUGATES, Vol. III, Horwitz, M. I., Editor, pp. 197-217, Academic Press, NY). For the preparation of core proteins, proteoglycans were digested with chondroitinase ABC (Seikagaku, Tokyo, Japan) by incubating 500 μg of proteoglycan with 0.8 units of chondroitinase ABC in 250 μl of 0.1M Tris/Cl, pH 8.0, 30 mM sodium acetate, 2 mM PMSF, 10 mM N-ethylmalelmide, 10 mM EDTA, and 0.36 mM pepstatin for 1 hour at 37° C. Recombinant decorin and decorin isolated from bovine skin (PGII) inhibited the binding of [^125 I]-TGFβ-1, as expected (FIG. 3A). […] This notion was further supported by competition experiments with the mutated decorin core protein (not shown) and chondroitinase ABC-digested decorin and biglycan (FIG.3B). Each of these proteins was inhibitory, whereas cartilage proteoglycan core protein was not.
Target sequence in this assay (P01137 279-390 limits assumed, species assumed): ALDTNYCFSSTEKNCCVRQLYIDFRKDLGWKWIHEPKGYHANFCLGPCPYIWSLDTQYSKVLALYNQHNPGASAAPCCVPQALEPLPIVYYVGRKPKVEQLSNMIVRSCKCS

[3] = target: T2, TGFβ-1; assay: affinity chromatography of 125I-TGFβ1 on control gelatin-Sepharose
[4] = target: T2, TGFβ-1
[5] = target: T1, TGF-β; assay: Binding of 125I-TGF-β to immobilized decorin with competitors; settings: 400 pM 125I-TGF-β pre-incubated with competitor; overnight 0° C.
Procedure: Immulon wells were coated with 0.5 μg/ml recombinant decorin at 50 μl/well. The wells were placed in a 37° C. incubator overnight and thereafter washed 3 times with 200 μl PBS (0.15M NaCl ) per well to remove unbound decorin. TGF-β labeled with ^125 I (400 pM, New England Nuclear, Bolton-Hunter Labeled) was pre-incubated with or without competitors in 200 μl PBS/0.05% Tween-20 for 1 hour and 45 minutes at room temperature. Competitors included recombinant human decorin preparations (DC-13 and DC-18v), decorin fragments, and MBP as a negative control.
Fifty μl/well of the pre-incubated ^125 I-TGF-β mixture or control were added and incubated overnight at 0° C. Following the incubation, 50 μl of the free TGF-β supernatants were transferred to labeled tubes. The plate was washed 3 times with 0.05% Tween-20 in PBS (200 μl/well). The wells were then transferred into tubes for counting in a gamma counter.
Further binding studies were conducted with soluble N-terminal decorin peptide fragments synthesized and tested for their ability to inhibit TGF-β1 binding to immobilized decorin as described above.

[6] = target: TGFβ-1 (Homo sapiens (Human), UniProt P01137, 125I label in most assays (chloramine T method in Example II; Bolton-Hunter labeled in Example VI); unlabeled in the experiment of Table I and in the growth assays); assay: soluble peptide competitor of 125I-TGF-β binding to immobilized decorin
Procedure: The wells were placed in a 37° C. incubator overnight and thereafter washed 3 times with 200 µl PBS (0.15M NaCl) per well to remove unbound decorin.
Following the incubation, 50 µl of the free TGF-β supernatants were transferred to labeled tubes. The plate was washed 3 times with 0.05% Tween-20 in PBS (200 µl/well). The wells were then transferred into tubes for counting in a gamma counter.

T1 sequence (P01137 279-390 limits assumed): as the sequence (P01137 279-390 limits assumed, species assumed) above

inhibition of binding of TGFβ1 to L-M(tk-) cells by synthetic peptides [1]: inhibited
Molecule: PFRSQSHLRVVQ [P25 -Q36, 18]

inhibition of 125I-TGF-β binding to immobilized decorin [5]: inhibited
B1: DC-13: preparation of recombinant human decorin (protein)
chain: DEASGIGPEVPDDRDFEPSLGPVCPFRCQCHLRVVQCSDLGLDKVPKDLPPDTTLLDLQNNKITEIKDGDFKNLKNLHALILVNNKISKVSPGAFTPLVKLERLYLSKNQLKELPEKMPKTLQELRAHENEITKVRKVTFNGLNQMIVIELGTNPLKSSGIENGAFQGMKKLSYIRIADTNITSIPQGLPPSLTELHLDGNKISRVDAASLKGLNNLAKLGLSFNSISAVDNGSLANTPHLRELHLDNNKLTRVPGGLAEHKYIQVVYLHNNNISVVGSSDFCPPGHNTKKASYSGVSLFSNPVQYWEIQPSTFRCVYVRSAIQLGNYK
modifications: single glycosaminoglycan chain of a chondroitin sulfate/dermatan sulfate type on serine-4
notes: preparation of recombinant human decorin

inhibition of 125I-TGF-β binding to immobilized decorin [5]: inhibited
B3: DC-18V: preparation of recombinant human decorin (protein)
chain: B1 chain
modifications: single glycosaminoglycan chain of a chondroitin sulfate/dermatan sulfate type on serine-4
notes: as for B1

inhibition of [125I]-TGFβ-1 binding to decorin-coated wells [2]: as effective an inhibitor as decorin | binding of [125I]-TGFβ-1 to microtiter wells coated with the protein [2]: bound
B6: Biglycan isolated from bovine articular cartilage: biglycan isolated from bovine articular cartilage (protein)
chain: DEEASGAETTSGIPDLDSLPPTYSAMCPFGCHCHLRVVQCSDLGLKAVPKEISPDTTLLDLQNNDISELRKDDFKGLQHLYALVLVNNKISKIHEKAFSPLRKLQKLYISKNHLVEIPPNLPSSLVELRIHDNRIRKVPKGVFSGLRNMNCIEMGGNPLENSGFEPGAFDGLKLNYLRISEAKLTGIPKDLPETLNELHLDHNKIQAIELEDLLRYSKLYRLGLGHNQIRMIENGSLSFLPTLRELHLDNNKLSRVPAGLPDLKLLQVVYLHTNNITKVGVNDFCPVGFGVKRAYYNGISLFNNPVPYWEVQPATFRCVTDRLAIQFGNYKK
modifications: intact proteoglycan (carries glycosaminoglycan)

The next lines start with the molecule.

Molecule: PFRCQCHLRVVQ [nP25 -Q36, 20]
inhibition of binding of TGFβ1 to L-M(tk-) cells by synthetic peptides [1]: demonstrated inhibitory activity, albeit to a lesser extent

Molecule: Bovine serum albumin: bovine serum albumin control [reference compound]
inhibition of [125I]-TGFβ-1 binding to decorin-coated wells [2]: did not shown any inhibition

Molecule: gelatin
percent of the radioactivity in the urea-eluted fraction [3]: 2%

Molecule: Bovine serum albumin treated with chondroitinase ABC: BSA treated with chondroitinase ABC, control [reference compound]
inhibition of [125I]-TGFβ-1 binding to decorin-coated wells by core proteins [2]: did not shown any inhibition

Molecule: recombinant human decorin (from UniProt P07585)
3H-thymidine incorporation in CHO cells stimulated with 5 ng/ml TGFβ-1, half maximal neutralization [4]: 5 µg/mL

B2: chondroitinase ABC-digested decorin: decorin core protein prepared by chondroitinase ABC digestion (protein)
chain: B1 chain with S4T
inhibition of [125I]-TGFβ-1 binding to decorin-coated wells by core proteins [2]: inhibitory; also recorded: somewhat more active than the intact proteoglycans

B4: mutated decorin core protein: decorin core protein with serine-4 mutated, lacking glycosaminoglycan (protein)
chain: B1 chain with S4T
inhibition of [125I]-TGFβ-1 binding to decorin-coated wells by core proteins [2]: inhibitory

B5: peptide 16G (peptide)
peptide: HLRVVQCSDLGL
binding result [6]: binds

B7: chondroitinase ABC-digested biglycan: biglycan core protein prepared by chondroitinase ABC digestion (protein)
chain: B6 chain
modifications: glycosaminoglycan removed with chondroitinase ABC
notes: biglycan core protein prepared by chondroitinase ABC digestion
inhibition of [125I]-TGFβ-1 binding to decorin-coated wells by core proteins [2]: inhibitory; also recorded: somewhat more active than the intact proteoglycans | binding of [125I]-TGFβ-1 to microtiter wells coated with the protein [2]: bound

B8: decorin isolated from bovine skin (PGII): decorin isolated from bovine skin (protein, UniProt P21793 31-360, looked up)
Decorin: DEASGIGPEEHFPEVPEIEPMGPVCPFRCQCHLRVVQCSDLGLEKVPKDLPPDTALLDLQNNKITEIKDGDFKNLKNLHTLILINNKISKISPGAFAPLVKLERLYLSKNQLKELPEKMPKTLQELRVHENEITKVRKSVFNGLNQMIVVELGTNPLKSSGIENGAFQGMKKLSYIRIADTNITTIPQGLPPSLTELHLDGNKITKVDAASLKGLNNLAKLGLSFNSISAVDNGSLANTPHLRELHLNNNKLVKVPGGLADHKYIQVVYLHNNNISAIGSNDFCPPGYNTKKASYSGVSLFSNPVQYWEIQPSTFRCVYVRAAVQLGNYK
inhibition of [125I]-TGFβ-1 binding to decorin-coated wells [2]: inhibited
